Test results as given in the DeepSol protein solubility set.

assay: soluble on expression in E. coli; label from the status in PepcDB or PDB records

Q: For “LGSMAAAAAQGGGGGEPRRTEGVGPGVPGEVEMVKGQPFDVGPRYTQLQYIGEGAYGMVSSAYDHVRKTRVAIKKISPFEHQTYCQRTLREIQILLRFRHENVIGIRDILRASTLEAMRDVYIVQDLMETDLYKLLKSQQLSNDHICYFLYQILRGLKYIHSANVLHRDLKPSNLLINTTCDLKICDFGLARIADPEHDHTGFLTEYVATRWYRAPEIMLNSKGYTKSIDIWSVGCILAEMLSNRPIFPGKHYLDQLNHILGILGSPSQEDLNCIINMKARNYLQSLPSKTKVAWAKLFPKSDSKALDLLDRMLTFNPNKRITVEEALAHPYLEQYYDPTDEPVAEEPFTFAMELDDLPKERLKELIFQETARFQPGVLEAP”, which “soluble on expression in E. coli” value is on record?
A: soluble

Q: Which “soluble on expression in E. coli” value does the source give for “MTDNSKIRVVVGMSGGVDSSVTALLLKEQGYDVIGVFMKNWDDTDEFGVCTATEDYKDVAAVADKIGIPYYSVNFEKEYWDRVFEYFLAEYRAGRTPNPDVMCNKEIKFKAFLDYAMTLGADYVATGHYAQVKRDENGTVHMLRGADNGKDQTYFLSQLSQEQLQKTLFPLGHLQKSEVREIAERAGLATAKKKDSTGICFIGEKNFKQFLSQYLPAQKGRMMTIDGRDMGEHAGLMYYTIGQRGGLGIGGQHGGDNQPWFVVGKDLSQNILYVGQGFYHEALMSNSLDASVIHFTREMPEEFTFECTAKFRYRQPDSHVAVHVRGDKAEVVFAEPQRAITPGQAVVFYDGKECLGGGMIDMAYKNGQPCQYI” here?
A: not soluble

Q: For “MANVLVINFPGEGHINPTLAIISELIRRGETVVSYCIEDYRKKIEATGAEFREFENFLSQINIMERVNEGGSPLTMLSHMIEASERIVTQIVEETKGEQYDYLLYDNHFPVGRIIANVLQLPSISSCTTFAFNQYITFNDEQESRQVDETNPLYQSCLAGMEKWNRQYGMKCNSMYDIMNHPGDITIVYTSKEYQPRSDVFDESYKFVGPSIATRKEVGSFPMEDLKGEKLIFISMGTVFNEQPELYEKCFEAFKGVEATVILAVGKKINISQFENIPNNFKLYNYVPQLEVLQHADVFVTHGGMNSSSEALYYGVPLVVIPVTGDQPLVAKRVNEVGAGIRLNRKELTSELLRETVKEVMYDVTFKENSRKVGESLRNAGGYKRAVDEIFKMKMNSYLKLK”, which “soluble on expression in E. coli” value is on record?
A: not soluble

Q: Which “soluble on expression in E. coli” value does the source give for “MAERRMFAKTIIDSDAFLDMPLSSQALYFHLAMRADDDGFINNPKKLQRMVGCGEDDLKLLMVKKFILVFESGVIVIKHWKIHNYIRSDRYKPTLYQEEKNQIVEKNSKAYTFKAESSVGGQPADYQRLPQESIVQSKLGQSQGSSSENDCLKMIYHFYEENGFGTLASKTSQDFKYWLQDFIQKGASQEEACQLILHALGIAVDRNKRNYGYVNAILKSWEQQNYLSVHEVLVNDKKQVLEHAPQMTEEYQELGF” here?
A: not soluble

Q: Which “soluble on expression in E. coli” value does the source give for “MKAVTYDTDSELAYIYVLPPKKNRNVRTEELRVNDCLLLDISQDGKIAGFECFGEAAHLCAPFAGKSRLYVKDSDGYHFRVCQHASVRSCYTVYRVTFCFSDGDYQEFAGFDLDGTMYHSAFLQRLTEKLEHHHHHH” here?
A: not soluble

Q: For “MGISSSAPESLGFDTVLPPHLRQHSHPPAGISPKRFLCRDLWPAELPSPAVSSAVSGPTWPEGISAPVFGKQTHVPQRTGSQDCHSCDPTLPEWERKIPP”, which “soluble on expression in E. coli” value is on record?
A: not soluble

Q: Which “soluble on expression in E. coli” value does the source give for “MKGNFVVSKEDWSLHRKGYDDQKRHQEKVKEAIKNNLPDLITEESIIMSNGRDVIKIPIRSLDEYKIRYNYEKNKHVGQGNGDSQVGDVVARDGSGEGQGPGKGQGAGDLPGQDYYEAEVSLMEIEEAFFSQLELPNLQRKELDQNVTQHIEFNDIRRTGLMGNIDKKRTMLAAFKRNAMNGKPGFYPIYREDLKFKTWNEVVKPESKAVVLAMMDTSGSMGMWEKYMARSFFFWMTRFLRTKYETVEIAFIAHHTEAKVVTEEEFFTKGESGGTICSSAYRKALELIETKYSPSRYNIYPFHFSDGDNLTSDNARCVKLVQELMKVSNMFGYGEVNQYNRHSTLMSAYRNIKDEKFRYYILKQKSDVFHAMRTFFRKEESKQLV” here?
A: not soluble

Q: With “MSPPLVIKNGTVVNEDGMFKADVLVRNGIIVEVSPNITALPDTEVIDATDRLVIPGGIDPHTHMQMPYMGEVTKDDFLKGTEAAVAGGTTMIIDFCCPDHRNGESLIAGYNRWRSWADPKVCCDYGLSVAITMWRPETAEQMAIITSPEFGVNSFKFYMAYENTLMVRDDELFRGMQECAKLRALARVHCENGSVIKEKEIDLLAKGVTGPEGHTQSRPEEIEAEATNRACVLAAQANCPVYIVHVMTKGAASAISHHRAQGSIVFGEPIAAGLALDGSHYYNEDWLHAARYVMSPPLSRDPTTPELLMKLLAAGELHLTGTDNCTYDCRQKSLGKGNFTKIPNGINGVEDRMSVVWEKGVHSGIIDPMRYVSITSSTAAKIFNIYPRKGRIAVGSDADIVIFNPNATRTISKDTHHHNLDFNIFEGINCHGVAEVTISRGRIVWAHGKLQTVPGSGKFIPLLANSPFVFSTHEKREQKIQPRIVERLE” as the sequence, how does the “soluble on expression in E. coli” value read?
A: not soluble

Q: For “RYWQLEVAPRRRADPPEALLELLDRSVTARMQGGPVGSMLSGGLDSGTVSMLASRRSEGPLPVISMKFDDHPEIDESEWIAKIHAAGRFRPVWIDGRDAHGGDVAELLAEQGGPFFAPNLATSRWLYRRAAEAGVEILLDGHGGDEVISFGVARLTELASEAQWRTLWQSTAAVSDLFGGSRREFFLNSMAQGAQSRWLRAMARRLNVGAKRDPRAWRQALHPALVARTGLVQRVQEAAGARKRGATDDIRQHVATLTAPRYPTTLEVLDRAATLCGIEPRYPFLERRLIEHCVAQPAAAKFHDGMTRALLRDAVRGLLPDEVRLRTSKTNFTPNVRARMLTSWGDNLNRIAGCNPGRIGDYVDLAVIREGIQRLRAGEPDQPALLQTMRAVVLDEWLR”, which “soluble on expression in E. coli” value is on record?
A: not soluble

Q: Which “soluble on expression in E. coli” value does the source give for “MISITSAEVGMKINEWHRHIQKFNVTDAEMLKAEIERDIEVMEEDQDLLIYYQLMAFRHKIMLEYTLPSDENRMELSEYLNKIEGHKKKLDNMRAYYYNFFRGMYEFRNGEYTRAITYYKKAERKIPTISDKIEKAEFYFKLSEVYYHMKMTHISMHYAELSYNIYKKHELYSVRRIQCHFVIAGNYDDLENHEKALPHLQEALKGAELLKSKNTHIYATAFFNLGNCYHKMDNLNKAARYIEQALVQYRKINSDVLPQAYHDLALIYFKQGKKGQAMDCFRKGIRSAVDFKDELFMNLFEALDVLYIRNGDTPKLLNIFSRLENGKGYPYLEELALLGGNLFDYNGKIEDSIICFKK” here?
A: not soluble

Q: Which “soluble on expression in E. coli” value does the source give for “VGEKITKMKEESHKTKQTKTEDPITKETYQARQRTLLQRDYLLVHIEDLLPKQVFAVSVINDYLVCIQAQGLEPMSDVGLLGKHQFYLRTYHYFV” here?
A: not soluble

Q: For “MSLIPLRQNIASMKGYIPGYQPPDIASWIKLNTNENPYPPSPEVVKAILEELGPDGAALRIYPSASSQKLREVAGELYGFDPSWIIMANGSDEVLNNLIRAFAAEGEEIGYVHPSYSYYGTLAEVQGARVRTFGLTGDFRIAGFPERYEGKVFFLTTPNAPLGPSFPLEYIDELARRCAGMLVLDETYAEFAESNALELVRRHENVVVTRTLSKSYSLAGMRIGLAIARPEVIAALDKIRDHYNLDRLAQAACVAALRDQAYLSECCRRIRETREWFTTELRSIGYDVIPSQGNYLFATPPDRDGKRVYDGLYARKVLVRHFSDPLLAHGMRISIGTREEMEQTLAALKEIGEGHHHHHH”, which “soluble on expression in E. coli” value is on record?
A: soluble

Q: With “GSGIIEFHVIGNSLTPKANRRVLLWLVGLQNVFSHQLPRMPKEYIARLVFDPKHKTLALIKDGRVIGGICFRMFPTQGFTEIVFCAVTSNEQVKGYGTHLMNHLKEYHIKHNILYFLTYADEYAIGYFKKQGFSKDIKVPKSRYLGYIKDYEGATLMECELNPRIPYT” as the sequence, how does the “soluble on expression in E. coli” value read?
A: soluble

Q: Which “soluble on expression in E. coli” value does the source give for “MAHHHHHHMDLNDFLRNTKTAAQDGSAGVRTLLSGHKRFADTNEASAEASSSGAGASGKRPRRSGTAEGLNIRAAQEALAQERGNTSAQAQQQRAQAELLSEQAAARMVHQVLEYVMQVELGGRHNAAKGGIAPFVPSAAQLAAEKAMWTPAAGYVIHHVVPATLDTSPHTLESLMSVTEKERVPDGVRALRGTLQVFDTERDLVGGVRTGMAPHLRTHVLEVLEKGLHGRAWLRDDAAVATQISALGKPTTPDKGPSSVLLFGDLATASVANSDATSSARDTASAGDEASKPRSKGFSLAAFLNGNDPTSSSSDGEDP” here?
A: not soluble

Q: With “MILVFLDNMASIKDLNLIDEINDSSNLKLINDRLKLLFWTKNPEITDEENKKKYLDFLNEYWDTLRAYGAGDLELFPDKINYLTLILAANSKNHNIYIKKLAEKYAEKIPIEDGDSKINIWDFIDVAANSRNNDLHLERMILEGDTVLLNQKNQSIYNFEKIRLKLKNYVEKVRNAEMPKEIKDLLVKKSEEAFEGINIGYNIESGIKVSTKEYSGEIPEDWHPPCMREILNDILSGGSPSHYARRSFVVYRFVSQFDPNLRPIEEGIITNRSAQDIATEEQIERFLDEIINIFKSVGDFDVEKTKYYISHNIGYKVANHITHCEYCKNWRDDGGKGLGYYCRPDSTCSRKDIIHPLDYLCHNINRHVKKSELEHHHHHH” as the sequence, how does the “soluble on expression in E. coli” value read?
A: not soluble

Q: Which “soluble on expression in E. coli” value does the source give for “MGSDKIHHHHHHKDPVINDLKDSEGNNISFTLNAPNNSSYTLMPENASSIIDIFTCEQPDYGFAAGVTYTVQVCEGGTEFEKFESLPTTGSGEKVLIKTFELNDAMNNLGMVNPTVAYNVDFRLKAFINDSVPELYSNTVNMAITPYSGARTQVYFVGDIFDNGWNNNDPSMRIFADDDVNNMLFTYTGFVKAGSAFKIIQTPGDWGIQWGYDSDGALSNDGGSGNIEGFTQDGYYTITLDLAGNKYSIEPYTGATTEYKQISLIGDFNDWGGDLDLQQASYDKHIWIGEKIEIPSDGGLKLRADHDWAVSFGGSNSLWNDKQGQFAKFDGGDNVKVSAGTYFIKFNDLTKHIILLAE” here?
A: not soluble

Q: With “MSLGDPGLKFQEYILQHIEPSKSYEIAICQSIGRRGKMEDTVVVDCSSIEGTDIIGVFDGHNGKDAAYLCTEQYIKTFKENEGTFEAKLIKTHKQLHDKSCETSKSGTTSTVAFIDKDTIRIAYCGDSPAYIYKNNKIKKITKEHKATNSAEVERIEMNGGVVFGMFGVKRVNGQIMVTRSIGDPSLHPPLTTEPDFIKLEKKGIELLFLMSDGITDGVTEKELEDIISKSGGMFNIAFDTLKLAYVNESSDNLTFIVIKINEGHHHHHH” as the sequence, how does the “soluble on expression in E. coli” value read?
A: soluble

Q: For “RDFNNLTKGLCTINSWHIYGKDNAVRIGEDSDVLVTREPYVSCDPDECRFYALSQGTTIRGKHSNGTIHDRSQYRALISWPLSSPPTVYNSRVECIGWSSTSCHDGKTRMSICISGPNNNASAVIWYNRRPVTEINTWARNILRTQESECVCHNGVCPVVFTDGSATGPAETRIYYFKEGKILKWEPLAGTAKHIEECSCYGERAEITCTCRDNWQGSNRPVIRIDPVAMTHTSQYICSPVLTDNPRPNDPTVGKCNDPYPGNNNNGVKGFSYLDGVNTWLGRTISIASRSGYEMLKVPNALTDDKSKPTQGQTIVLNTDWSGYSGSFMDYWAEGECYRACFYVELIRGRPKEDKVWWTSNSIVSMCSSTEFLGQWDWPDGAKIEYFL”, which “soluble on expression in E. coli” value is on record?
A: soluble

Q: For “MGSDKIHHHHHHMNTTQELHVIFGTGPLAQAVMRELLARNKRVRMINRSGKADIPSSVEIIASDAYNSENTRAVTTGATVVYQCAQPAYTQWPELFPSLQASIVEGVAANGAKLVVGDNLYMYGPVNGVLREDMPNAATTRKGRVRGQMTEALLDAHRRGIVRVAIGRASDFYGPLVLDSVMGDRIFPSVLTGKPASAIGEIDLPHTYTFIDDFGKALVVLGEEDKALGQIWHVPNAETITTRQFITIAFEEAGYPPKISKMGKFMMRLGGIFIPEARETVEMMYEFDEPFVVNHDKYVQAFGNHATPLREAIRHTLKWYSEHLKTLKT”, which “soluble on expression in E. coli” value is on record?
A: not soluble

Q: Which “soluble on expression in E. coli” value does the source give for “MGPTQETYTIVRYQSGTFSKQLDEIVTESPITIKLNGEEYVTVVCTPNYIEDMVIGFLISEGIISSYNDVEELWVQKDNGIVHVKSSKVNPLYQTLYNKRYVTSCCGKGRQGFIFVNDAAKAKDLHDIHVKITPEECFYLMNTLQQSSTTFRQTGGVHNTALCDRNKILLSRMDIGRHNALDKIYGHCLRNDISVKGKIIAFSGRISSEILLKVSKIGCEIVLSKSAPTKLALQLAHDLGITVVGFIRNESCNIYTHPHRIDGYQSNNLEHHHHHH” here?
A: soluble
